B1: LIGIIIα▵BRCT (1–755 amino acids) (domain or fragment)
chain: MAEQRFCVDYAKRGTAGCKKCKEKIVKGVCRIGKVVPNPFSESGGDMKEWYHIKCMFEKLERARATTKKIEDLTELEGWEELEDNEKEQITQHIADLSSKAAGTPKKKAVVQAKLTTTGQVTSPVKGASFVTSTNPRKFSGFSAKPNNSGEAPSSPTPKRSLSSSKCDPRHKDCLLREFRKLCAMVADNPSYNTKTQIIQDFLRKGSAGDGFHGDVYLTVKLLLPGVIKTVYNLNDKQIVKLFSRIFNCNPDDMARDLEQGDVSETIRVFFEQSKSFPPAAKSLLTIQEVDEFLLRLSKLTKEDEQQQALQDIASRCTANDLKCIIRLIKHDLKMNSGAKHVLDALDPNAYEAFKASRNLQDVVERVLHNAQEVEKEPGQRRALSVQASLMTPVQPMLAEACKSVEYAMKKCPNGMFSEIKYDGERVQVHKNGDHFSYFSRSLKPVLPHKVAHFKDYIPQAFPGGHSMILDSEVLLIDNKTGKPLPFGTLGVHKKAAFQDANVCLFVFDCIYFNDVSLMDRPLCERRKFLHDNMVEIPNRIMFSEMKRVTKALDLADMITRVIQEGLEGLVLKDVKGTYEPGKRHWLKVKKDYLNEGAMADTADLVVLGAFYGQGSKGGMMSIFLMGCYDPGSQKWCTVTKCAGGHDDATLARLQNELDMVKISKDPSKIPSWLKVNKIYYPDFIVPDPKKAAVWEITGAEFSKSEAHTADGISIRFPRCTRIRDDKDWKSATNLPQLKELYQLSKEKADFTVVA
B2: LIGIIIα▵ZnF (170–922 amino acids) (domain or fragment)
chain: RHKDCLLREFRKLCAMVADNPSYNTKTQIIQDFLRKGSAGDGFHGDVYLTVKLLLPGVIKTVYNLNDKQIVKLFSRIFNCNPDDMARDLEQGDVSETIRVFFEQSKSFPPAAKSLLTIQEVDEFLLRLSKLTKEDEQQQALQDIASRCTANDLKCIIRLIKHDLKMNSGAKHVLDALDPNAYEAFKASRNLQDVVERVLHNAQEVEKEPGQRRALSVQASLMTPVQPMLAEACKSVEYAMKKCPNGMFSEIKYDGERVQVHKNGDHFSYFSRSLKPVLPHKVAHFKDYIPQAFPGGHSMILDSEVLLIDNKTGKPLPFGTLGVHKKAAFQDANVCLFVFDCIYFNDVSLMDRPLCERRKFLHDNMVEIPNRIMFSEMKRVTKALDLADMITRVIQEGLEGLVLKDVKGTYEPGKRHWLKVKKDYLNEGAMADTADLVVLGAFYGQGSKGGMMSIFLMGCYDPGSQKWCTVTKCAGGHDDATLARLQNELDMVKISKDPSKIPSWLKVNKIYYPDFIVPDPKKAAVWEITGAEFSKSEAHTADGISIRFPRCTRIRDDKDWKSATNLPQLKELYQLSKEKADFTVVAGDEGSSTTGGSSEENKGPSGSAVSRKAPSKPSASTKKAEGKLSNSNSKDGNMQTAKPSAMKVGEKLATKSSPVKVGEKRKAADETLCQTKVLLDIFTGVRLYLPPSTPDFSRLRRYFVAFDGDLVQEFDMTSATHVLGSRDKNPAAQQVSPEWIWACIRKRRLVAPC

Target: Apurinic/apyrimidinic-endonuclease 1 (UniProt P27695 1-318)
Sequence (P27695 whole entry): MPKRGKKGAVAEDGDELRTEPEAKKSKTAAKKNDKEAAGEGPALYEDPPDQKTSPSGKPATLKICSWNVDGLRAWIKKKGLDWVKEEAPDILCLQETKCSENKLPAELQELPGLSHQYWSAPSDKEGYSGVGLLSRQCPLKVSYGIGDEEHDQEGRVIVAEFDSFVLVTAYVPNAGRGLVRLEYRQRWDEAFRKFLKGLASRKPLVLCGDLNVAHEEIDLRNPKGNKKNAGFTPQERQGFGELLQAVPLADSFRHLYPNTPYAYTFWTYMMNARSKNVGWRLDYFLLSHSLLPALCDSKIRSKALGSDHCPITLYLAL
Assay: SPR

Binder | Kd
B1 | 1050 nM
B2 | 4.9 nM
